Source: patent US20190185575A1 (ONCOTHERAPY SCIENCE, published 2019)

Target: T1, human MELK protein (Maternal Embryonic Leucine zipper Kinase), full-length (human, UniProt Q14680 1-651)
T1 construct: It was detected in formalin-fixed paraffin sections (IHC) or in RIPA lysates after SDS-PAGE (western blot); MELK is an intracellular kinase, so 'on cells' here means in cells or sections; also called full-length MELK protein; endogenous MELK protein
Assay: immunohistochemical staining of formalin-fixed paraffin sections, MELK/293T vs Mock/293T
Description: For antigen activation, sections immersed in the antigen-activating solution, pH 9 (Nichirei Biosciences Inc.) were incubated at 125° C. for 30 seconds. After incubation, these were left to stand for 20 minutes at room temperature, and washed for 5 minutes under running water. After immersing them in 3.0% hydrogen peroxide water for 10 minutes to perform blocking of endogenous peroxidase, they were washed with Wash Buffer (TBS-T (Takara Bio)) three times for 5 minutes. Furthermore, with the aim of blocking non-specific reactions, a suitable amount of Protein Block Solution (Dako) was dropped onto the sections and then left to stand for 10 minutes. The primary antibodies (OTSMAb01, MELK(N449)pAb, MELK(HPA017214)pAb) were respectively dropped in suitable amounts within a humid box, left to stand for 60 minutes, and then washed with the Wash Buffer three times for 5 minutes. Histofine Simple Stain MAX PO (Nichirei Biosciences Inc.) was dropped in suitable amounts as the secondary antibody in a humid box, and left to stand for 30 minutes. These were then washed with the Wash Buffer three times for 5 minutes. The chromogenic reaction was done using the DAB substrate solution (Nichirei Biosciences Inc.). The slide sections were immersed for 20 seconds in haematoxylin (Dako), and washed under running water. […]

T1 sequence (Q14680 whole entry): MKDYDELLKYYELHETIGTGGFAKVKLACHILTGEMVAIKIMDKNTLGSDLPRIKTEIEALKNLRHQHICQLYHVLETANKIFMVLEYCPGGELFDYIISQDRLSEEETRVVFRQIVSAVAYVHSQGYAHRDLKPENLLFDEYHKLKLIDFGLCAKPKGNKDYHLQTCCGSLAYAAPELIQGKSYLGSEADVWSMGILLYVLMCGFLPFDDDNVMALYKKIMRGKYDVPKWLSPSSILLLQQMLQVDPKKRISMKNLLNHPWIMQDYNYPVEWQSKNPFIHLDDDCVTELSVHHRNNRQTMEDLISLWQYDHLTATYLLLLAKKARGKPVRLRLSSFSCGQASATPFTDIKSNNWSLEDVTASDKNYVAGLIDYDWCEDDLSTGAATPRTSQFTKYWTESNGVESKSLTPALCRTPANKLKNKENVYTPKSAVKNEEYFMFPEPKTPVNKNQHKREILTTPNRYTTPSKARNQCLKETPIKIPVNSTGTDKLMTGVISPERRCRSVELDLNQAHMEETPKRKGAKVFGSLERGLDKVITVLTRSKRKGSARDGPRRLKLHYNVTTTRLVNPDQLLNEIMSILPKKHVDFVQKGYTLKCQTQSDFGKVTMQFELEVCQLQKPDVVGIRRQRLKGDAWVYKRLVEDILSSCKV

binding result: binds
B1: anti-MELK mouse monoclonal antibody clone OTSMAb01 (antibody, V domains shown)
VH: EVQLQQSGAELVRPGALVKLSCKASGFNIKDYYMHWVKQRPEQGLEWIGWIDPENGNTIYDPKFQGKASVTADTSSNTAYLQLSSLTSEDTAVYYCTSHHYSAMDYWGQGTSVTVSS
VL: DVVMTQTPLSLPVSLRDQASISCRSSQSLVHSNGNTYLHWYLQKPGQSPKLLIYKVSNRFSGVPDRFSGSGSGTDFTLIISRVEAEDLGVYFCSQSTYVPLTFGAGTKLELKR
notes: Mouse monoclonal antibody from a hybridoma (Balb/c splenocytes x SP2/0), purified from culture solution on a Protein A column; also called anti-MELK antibody (OTSMAb01); hybridoma clone OTSMAb01
